Source: FireProtDB (doi:10.1021/bi960052u)

Conditions: Equus caballus, pH 7, 10 °C, GdnHCl, Fluorescence, Sodium phosphate 0.1 M

Sequence of Cytochrome c L95V, P00004 (P00004 whole entry L95V): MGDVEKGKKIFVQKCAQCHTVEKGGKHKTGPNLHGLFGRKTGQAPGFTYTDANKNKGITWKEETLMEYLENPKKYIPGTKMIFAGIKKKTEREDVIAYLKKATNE
Sequence of Cytochrome c L95I, P00004 (P00004 whole entry L95I): as the sequence (P00004 whole entry L95V) above, with V95I counted along it
Sequence of Cytochrome c wild type, P00004 (P00004 whole entry): as the sequence (P00004 whole entry L95V) above, with V95L counted along it
Sequence of Cytochrome c L95A, P00004 (P00004 whole entry L95A): as the sequence (P00004 whole entry L95V) above, with V95A counted along it

Cytochrome c wild type, P00004
denaturant m value: 3.5 kcal/mol/M
denaturant midpoint (higher = more stable): 2.77 M
unfolding free energy: 9.7 kcal/mol

Cytochrome c L95V, P00004
ddG of mutation (higher = less stable) (structure 1AKK): 0.8 kcal/mol
denaturant m value (structure 1AKK): 3.6 kcal/mol/M
denaturant midpoint (higher = more stable) (structure 1AKK): 2.47 M
unfolding free energy (structure 1AKK): 8.9 kcal/mol

Cytochrome c L95I, P00004
ddG of mutation (higher = less stable) (structure 1AKK): -0.2 kcal/mol
denaturant m value (structure 1AKK): 4 kcal/mol/M
denaturant midpoint (higher = more stable) (structure 1AKK): 2.47 M
unfolding free energy (structure 1AKK): 9.9 kcal/mol

Cytochrome c L95A, P00004
ddG of mutation (higher = less stable) (structure 1AKK): 3.5 kcal/mol
denaturant m value (structure 1AKK): 3.7 kcal/mol/M
denaturant midpoint (higher = more stable) (structure 1AKK): 1.67 M
unfolding free energy (structure 1AKK): 6.2 kcal/mol
